The record followed here is patent publication US20240010722A1 (published 2024).

What all share (test): BLI (Octet)
(In general: In BLI a coated tip is dipped into the sample, and binding shifts an interference pattern.)

For experiment [1], the target named is T1, human MAdCAM (human, UniProt Q13477 19-317, limits assumed).
T1 construct: also called huMAdCAM; human MAdCAM-1
T1 sequence (looked up): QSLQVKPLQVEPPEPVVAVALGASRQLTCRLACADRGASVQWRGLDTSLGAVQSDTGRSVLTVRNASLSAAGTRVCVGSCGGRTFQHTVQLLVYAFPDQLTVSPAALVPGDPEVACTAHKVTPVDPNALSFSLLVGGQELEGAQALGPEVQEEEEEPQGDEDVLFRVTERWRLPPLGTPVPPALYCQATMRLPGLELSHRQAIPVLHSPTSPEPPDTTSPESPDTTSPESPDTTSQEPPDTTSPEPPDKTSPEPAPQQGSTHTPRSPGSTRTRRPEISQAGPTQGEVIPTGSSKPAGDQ

For experiment [2], the target named is T2, mouse MAdCAM (mouse, UniProt Q61826 22-365, limits assumed).
T2 construct: also called mouse MAdCAM-1; muMAdCAM
T2 sequence (looked up): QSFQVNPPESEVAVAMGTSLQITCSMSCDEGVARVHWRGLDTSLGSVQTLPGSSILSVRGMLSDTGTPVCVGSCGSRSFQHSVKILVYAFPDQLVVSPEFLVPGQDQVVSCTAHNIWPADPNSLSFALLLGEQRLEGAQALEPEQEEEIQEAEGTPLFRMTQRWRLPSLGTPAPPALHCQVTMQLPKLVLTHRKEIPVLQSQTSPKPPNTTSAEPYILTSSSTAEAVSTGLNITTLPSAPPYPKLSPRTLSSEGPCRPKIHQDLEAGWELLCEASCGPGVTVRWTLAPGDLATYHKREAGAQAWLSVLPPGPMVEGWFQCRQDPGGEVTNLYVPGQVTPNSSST

Experiment [3] concerns the target T3, cyno MAdCAM (cynomolgus).
T3 construct: also called cynomolgus MAdCAM

B1: PMAB18 (bispecific antibody, human IgG1, kappa)
heavy: QVQLVQSGAEVKKPGASVKVSCKASGYSFTTYYMHWVRQAPGQGLEWMGIIAPSGGSTSYAQKFQGRVTMTRDTSTSTVYMELSSLRSEDTAVYYCASGWVYWGQGTLVTVSSASTKGPSVFPLAPSSKSTSGGTAALGCLVKDYFPEPVTVSWNSGALTSGVHTFPAVLQSSGLYSLSSVVTVPSSSLGTQTYICNVNHKPSNTKVDKKVEPKSCDKTHTCPPCPAPEAAGAPSVFLFPPKPKDTLMISRTPEVTCVVVDVSHEDPEVKFNWYVDGVEVHNAKTKPREEQYNSTYRVVSVLTVLHQDWLNGKEYKCKVSNKALPAPIEKTISKAKGQPREPQVYTLPPSREEMTKNQVSLTCLVKGFYPSDIAVEWESNGQPENNYKTTPPVLDSDGSFFLYSKLTVDKSRWQQGNVFSCSVMHEALHNHYTQKSLSLSPGGGGGSGGGGSGGGGSEVQLLESGGGLVQPGGSLRLSCAASGFTFSSYWMHWVRQAPGKGLEWVSYISGSGGYTNYADSVKGRFTISRDNSKNTLYLQMNSLRAEDTAVYYCARDRPYYYDMDVWGKGTTVTVSSGGGGSGGGGSGGGGSGGGGSDIQMTQSPSSLSASVGDRVTITCRASQSISSSLAWYQQKPGKAPKLLIYAASSLQSGVPSRFSGSGSGTDFTLTISSLQPEDFATYYCQQYKSYPVTFGQGTKVEIK
light: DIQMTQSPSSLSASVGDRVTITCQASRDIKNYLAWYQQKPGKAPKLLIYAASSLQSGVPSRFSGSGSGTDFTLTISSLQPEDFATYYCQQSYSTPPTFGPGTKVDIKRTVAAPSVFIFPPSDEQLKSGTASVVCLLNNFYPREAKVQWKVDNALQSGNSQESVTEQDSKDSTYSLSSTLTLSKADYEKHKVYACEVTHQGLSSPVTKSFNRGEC
Usually Kd stands for the constant that tells how readily two partners part at equilibrium. Read a high Kd as weaker binding. A word on the koff: it is the first-order rate constant of dissociation. Read a low koff as a long-lived complex. The term kon denotes the second-order rate constant of association. Low readings indicate slow association, high ones fast association. In experiment [1], B1 came in with a Kd of 198 nM, a koff of 0.0511 s⁻¹, a kon of 259000 M⁻¹ s⁻¹ and a response of 0.184. Also, in experiment [2], the Kd turned out to be 201 nM, the koff is 0.0776 s⁻¹ and the kon was 386000 M⁻¹ s⁻¹. In experiment [3], this molecule displayed a Kd of 22.6 nM, a koff of 0.0102 s⁻¹, a kon of 453000 M⁻¹ s⁻¹ and a response of 0.145.

B2: PMAB15 (bispecific antibody, human IgG1, kappa)
heavy: EVQLLESGGGLVQPGGSLRLSCAASGFTFSSYDMSWVRQAPGKGLEWVSGITISGGSTYYADSVKGRFTISRDNSKNTLYLQMNSLRAEDTAVYYCARGRGGSGWLDYWGQGTLVTVSSASTKGPSVFPLAPSSKSTSGGTAALGCLVKDYFPEPVTVSWNSGALTSGVHTFPAVLQSSGLYSLSSVVTVPSSSLGTQTYICNVNHKPSNTKVDKKVEPKSCDKTHTCPPCPAPEAAGAPSVFLFPPKPKDTLMISRTPEVTCVVVDVSHEDPEVKFNWYVDGVEVHNAKTKPREEQYNSTYRVVSVLTVLHQDWLNGKEYKCKVSNKALPAPIEKTISKAKGQPREPQVYTLPPSREEMTKNQVSLTCLVKGFYPSDIAVEWESNGQPENNYKTTPPVLDSDGSFFLYSKLTVDKSRWQQGNVFSCSVMHEALHNHYTQKSLSLSPGGGGGSGGGGSGGGGSEVQLLESGGGLVQPGGSLRLSCAASGFTFSSYWMHWVRQAPGKGLEWVSAISGSGGSTYYADSVKGRFTISRDNSKNTLYLQMNSLRAEDTAVYYCARDRPYYYDMDVWGKGTTVTVSSGGGGSGGGGSGGGGSGGGGSDIQMTQSPSSLSASVGDRVTITCRASQSISSSLAWYQQKPGKAPKLLIYAASSLQSGVPSRFSGSGSGTDFTLTISSLQPEDFATYYCQQYKSYPVTFGQGTKVEIK
light: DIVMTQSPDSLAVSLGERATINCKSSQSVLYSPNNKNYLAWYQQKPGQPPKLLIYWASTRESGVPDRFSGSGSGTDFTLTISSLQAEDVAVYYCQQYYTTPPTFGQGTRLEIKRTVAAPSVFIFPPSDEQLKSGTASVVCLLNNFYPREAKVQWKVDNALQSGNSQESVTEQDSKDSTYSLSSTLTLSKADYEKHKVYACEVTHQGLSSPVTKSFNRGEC
In experiment [1], B2 registered an equilibrium dissociation constant (Kd) of 73.1 nM, a koff of 0.0839 s⁻¹, a kon of 1.15e+06 M⁻¹ s⁻¹ and a response of 0.0655.

B3: PMAB17 (bispecific antibody, human IgG1, kappa)
heavy: EVQLLESGGGLVQPGGSLRLSCAASGFTFSSYDMSWVRQAPGKGLEWVSGITISGGSTYYADSVKGRFTISRDNSKNTLYLQMNSLRAEDTAVYYCARGRGGSGWLDYWGQGTDVTVSSASTKGPSVFPLAPSSKSTSGGTAALGCLVKDYFPEPVTVSWNSGALTSGVHTFPAVLQSSGLYSLSSVVTVPSSSLGTQTYICNVNHKPSNTKVDKKVEPKSCDKTHTCPPCPAPEAAGAPSVFLFPPKPKDTLMISRTPEVTCVVVDVSHEDPEVKFNWYVDGVEVHNAKTKPREEQYNSTYRVVSVLTVLHQDWLNGKEYKCKVSNKALPAPIEKTISKAKGQPREPQVYTLPPSREEMTKNQVSLTCLVKGFYPSDIAVEWESNGQPENNYKTTPPVLDSDGSFFLYSKLTVDKSRWQQGNVFSCSVMHEALHNHYTQKSLSLSPGGGGGSGGGGSGGGGSEVQLLESGGGLVQPGGSLRLSCAASGFTFSSYWMHWVRQAPGKGLEWVSAISGSGGSTYYADSVKGRFTISRDNSKNTLYLQMNSLRAEDTAVYYCARDRPYGYYMDVWGKGTTVTVSSGGGGSGGGGSGGGGSGGGGSDIQMTQSPSSLSASVGDRVTITCRASQSISSSLAWYQQKPGKAPKLLIYAASSLQSGVPSRFSGSGSGTDFTLTISSLQPEDFATYYCQQYKSYPVTFGQGTKVEIK
light: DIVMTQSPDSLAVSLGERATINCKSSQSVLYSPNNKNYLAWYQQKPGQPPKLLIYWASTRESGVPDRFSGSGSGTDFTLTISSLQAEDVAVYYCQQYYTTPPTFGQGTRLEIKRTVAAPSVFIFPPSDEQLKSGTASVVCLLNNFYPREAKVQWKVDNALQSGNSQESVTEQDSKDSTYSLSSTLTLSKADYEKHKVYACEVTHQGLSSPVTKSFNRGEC
In experiment [1], B3 registered a Kd of 17.1 nM, a koff of 0.0636 s⁻¹, a kon of 3.73e+06 M⁻¹ s⁻¹ and a response of 0.0416.

B4: PMAB16 (bispecific antibody, human IgG1, kappa)
heavy: EVQLLESGGGLVQPGGSLRLSCAASGFTFSSYDMSWVRQAPGKGLEWVSGITISGGSTYYADSVKGRFTISRDNSKNTLYLQMNSLRAEDTAVYYCARGRGGSGWLDYWGQGTLVTVSSASTKGPSVFPLAPSSKSTSGGTAALGCLVKDYFPEPVTVSWNSGALTSGVHTFPAVLQSSGLYSLSSVVTVPSSSLGTQTYICNVNHKPSNTKVDKKVEPKSCDKTHTCPPCPAPEAAGAPSVFLFPPKPKDTLMISRTPEVTCVVVDVSHEDPEVKFNWYVDGVEVHNAKTKPREEQYNSTYRVVSVLTVLHQDWLNGKEYKCKVSNKALPAPIEKTISKAKGQPREPQVYTLPPSREEMTKNQVSLTCLVKGFYPSDIAVEWESNGQPENNYKTTPPVLDSDGSFFLYSKLTVDKSRWQQGNVFSCSVMHEALHNHYTQKSLSLSPGGGGGSGGGGSGGGGSEVQLLESGGGLVQPGGSLRLSCAASGFTFSSYWMHWVRQAPGKGLEWVSYISGSGGYTNYADSVKGRFTISRDNSKNTLYLQMNSLRAEDTAVYYCARDRPYYYDMDVWGKGTTVTVSSGGGGSGGGGSGGGGSGGGGSDIQMTQSPSSLSASVGDRVTITCRASQSISSSLAWYQQKPGKAPKLLIYAASSLQSGVPSRFSGSGSGTDFTLTISSLQPEDFATYYCQQYKSYPVTFGQGTKVEIK
light: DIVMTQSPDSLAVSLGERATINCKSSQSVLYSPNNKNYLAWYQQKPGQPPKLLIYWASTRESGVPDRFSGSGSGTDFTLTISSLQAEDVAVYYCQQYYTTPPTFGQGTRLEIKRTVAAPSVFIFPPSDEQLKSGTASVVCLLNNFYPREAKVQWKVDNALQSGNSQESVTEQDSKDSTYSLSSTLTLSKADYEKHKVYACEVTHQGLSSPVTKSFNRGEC
With B4, in experiment [1], the Kd was determined as 134 nM, the koff is 0.0631 s⁻¹, the kon was 472000 M⁻¹ s⁻¹ and the response was 0.186. Also, in experiment [2], the dissociation constant Kd is 334 nM, the koff was 0.0828 s⁻¹, the kon worked out at 248000 M⁻¹ s⁻¹ and the response was 0.0407.

B5: PMAB53 (bispecific antibody, human IgG1, kappa)
heavy: EVQLLESGGGLVQPGGSLRLSCAASGFTFSSYDMSWVRQAPGKGLEWVSGITISGGSTYYADSVKGRFTISRDNSKNTLYLQMNSLRAEDTAVYYCARGRGGSGWLDYWGQGTTVTVSSASTKGPSVFPLAPSSKSTSGGTAALGCLVKDYFPEPVTVSWNSGALTSGVHTFPAVLQSSGLYSLSSVVTVPSSSLGTQTYICNVNHKPSNTKVDKKVEPKSCDKTHTCPPCPAPEAAGAPSVFLFPPKPKDTLMISRTPEVTCVVVDVSHEDPEVKFNWYVDGVEVHNAKTKPREEQYNSTYRVVSVLTVLHQDWLNGKEYKCKVSNKALPAPIEKTISKAKGQPREPQVYTLPPSREEMTKNQVSLTCLVKGFYPSDIAVEWESNGQPENNYKTTPPVLDSDGSFFLYSKLTVDKSRWQQGNVFSCSVMHEALHNHYTQKSLSLSPGGGGGSGGGGSGGGGSEVQLLESGGGLVQPGGSLRLSCAASGFTFSSYWMHWVRQAPGKGLEWVSYISGSGGYTNYADSVKGRFTISRDNSKNTLYLQMNSLRAEDTAVYYCARDRPYYYDIDVWGKGTTVTVSSGGGGSGGGGSGGGGSGGGGSDIQMTQSPSSLSASVGDRVTITCRASQSISSSLAWYQQKPGKAPKLLIYAASSLQSGVPSRFSGSGSGTDFTLTISSLQPEDFATYYCQQYKSYPVTFGQGTKVEIK
light: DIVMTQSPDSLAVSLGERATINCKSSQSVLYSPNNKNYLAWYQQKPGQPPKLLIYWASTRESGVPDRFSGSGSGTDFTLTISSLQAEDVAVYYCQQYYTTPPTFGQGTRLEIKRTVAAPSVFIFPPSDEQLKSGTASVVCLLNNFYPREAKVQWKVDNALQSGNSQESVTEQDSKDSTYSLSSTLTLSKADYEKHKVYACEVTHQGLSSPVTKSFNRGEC
Consider B5, for which the Kd in experiment [1] was 49.7 nM; in experiment [2], 1740 nM; in experiment [3], 379 nM. Further, the koff in experiment [1] came to 0.000716 s⁻¹; in experiment [2], 0.217 s⁻¹; in experiment [3], 0.0217 s⁻¹. Further, the kon in experiment [1] is 14400 M⁻¹ s⁻¹; in experiment [2], 125000 M⁻¹ s⁻¹; in experiment [3] it was 57100 M⁻¹ s⁻¹.

B6: PMAB56 (bispecific antibody, human IgG1, kappa)
heavy: EVQLLESGGGLVQPGGSLRLSCAASGFTFSSYDMSWVRQAPGKGLEWVSGITISGGSTYYADSVKGRFTISRDNSKNTLYLQMNSLRAEDTAVYYCARGRGGSGWLDYWGQGTTVTVSSASTKGPSVFPLAPSSKSTSGGTAALGCLVKDYFPEPVTVSWNSGALTSGVHTFPAVLQSSGLYSLSSVVTVPSSSLGTQTYICNVNHKPSNTKVDKKVEPKSCDKTHTCPPCPAPEAAGAPSVFLFPPKPKDTLMISRTPEVTCVVVDVSHEDPEVKFNWYVDGVEVHNAKTKPREEQYNSTYRVVSVLTVLHQDWLNGKEYKCKVSNKALPAPIEKTISKAKGQPREPQVYTLPPSREEMTKNQVSLTCLVKGFYPSDIAVEWESNGQPENNYKTTPPVLDSDGSFFLYSKLTVDKSRWQQGNVFSCSVMHEALHNHYTQKSLSLSPGGGGGSGGGGSGGGGSEVQLLESGGGLVQPGGSLRLSCAASGFTFSSYWMHWVRQAPGKGLEWVSYISGSGGYTNYADSVKGRFTISRDNSKNTLYLQMNSLRAEDTAVYYCARDRPYYYDLDVWGKGTTVTVSSGGGGSGGGGSGGGGSGGGGSDIQMTQSPSSLSASVGDRVTITCRASQSISSSLAWYQQKPGKAPKLLIYAASSLQSGVPSRFSGSGSGTDFTLTISSLQPEDFATYYCQQYKSYPVTFGQGTKVEIK
light: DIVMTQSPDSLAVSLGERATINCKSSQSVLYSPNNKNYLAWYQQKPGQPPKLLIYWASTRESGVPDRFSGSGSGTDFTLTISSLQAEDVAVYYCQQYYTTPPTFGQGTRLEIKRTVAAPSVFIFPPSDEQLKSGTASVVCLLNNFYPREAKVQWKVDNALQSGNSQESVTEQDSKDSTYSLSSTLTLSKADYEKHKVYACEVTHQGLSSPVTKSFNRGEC
On to B6, for which, in experiment [1], the Kd is 208 nM, the koff turned out to be 0.00491 s⁻¹ and the kon was 23600 M⁻¹ s⁻¹. In experiment [2], this molecule registered a Kd of 161 nM, an off-rate (koff) of 0.00147 s⁻¹ and a kon of 9120 M⁻¹ s⁻¹. In experiment [3], this molecule yielded a Kd of 96.5 nM, a koff of 0.0591 s⁻¹ and a kon of 612000 M⁻¹ s⁻¹.
